Source: PMC5806882, “Structural and biochemical characterization of the biuret hydrolase (BiuH) from the cyanuric acid catabolism pathway of Rhizobium leguminasorum bv. viciae 3841” (PLoS ONE, 2018)

Columns and labels:
NC(=O)NC(N)=O [1] = test system: T1, NC(=O)NC(N)=O; assay: GDH-coupled steady-state kinetics (KM); type: biochemical, Rhizobium johnstonii; conditions: active site
T1 construct: wild type, N-terminal 6xHis-tag

NC(=O)NC(N)=O [2] = assay: GDH-coupled steady-state kinetics (KM); type: biochemical, Rhizobium johnstonii; conditions: active site

biuret hydrolase (BiuH) (Rhizobium johnstonii 3841; K142R), sequence (chain, as listed by the source K142R): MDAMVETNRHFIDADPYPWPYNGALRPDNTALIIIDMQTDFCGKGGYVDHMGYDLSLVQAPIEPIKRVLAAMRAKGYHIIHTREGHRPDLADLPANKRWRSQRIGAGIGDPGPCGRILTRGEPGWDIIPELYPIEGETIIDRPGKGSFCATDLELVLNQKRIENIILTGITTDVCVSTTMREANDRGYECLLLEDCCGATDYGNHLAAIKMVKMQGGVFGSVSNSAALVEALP
biuret hydrolase (BiuH) (Rhizobium johnstonii 3841; F41W), sequence (chain, as listed by the source F41W): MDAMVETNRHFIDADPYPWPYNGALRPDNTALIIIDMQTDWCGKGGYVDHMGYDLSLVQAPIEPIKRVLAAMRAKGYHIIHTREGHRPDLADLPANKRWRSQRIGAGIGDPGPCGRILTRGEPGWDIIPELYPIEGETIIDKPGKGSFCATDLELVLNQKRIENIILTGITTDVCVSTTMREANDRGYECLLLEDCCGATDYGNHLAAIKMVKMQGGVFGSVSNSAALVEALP
biuret hydrolase (BiuH) (Rhizobium johnstonii 3841), sequence (chain, as listed by the source): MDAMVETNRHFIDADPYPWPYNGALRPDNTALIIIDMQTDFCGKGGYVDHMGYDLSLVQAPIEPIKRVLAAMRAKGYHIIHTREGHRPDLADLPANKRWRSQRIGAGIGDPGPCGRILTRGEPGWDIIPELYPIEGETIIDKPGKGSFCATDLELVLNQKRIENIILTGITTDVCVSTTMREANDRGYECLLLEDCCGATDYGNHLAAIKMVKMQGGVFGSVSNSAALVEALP
biuret hydrolase (BiuH) (Rhizobium johnstonii 3841; Q215N), sequence (chain, as listed by the source Q215N): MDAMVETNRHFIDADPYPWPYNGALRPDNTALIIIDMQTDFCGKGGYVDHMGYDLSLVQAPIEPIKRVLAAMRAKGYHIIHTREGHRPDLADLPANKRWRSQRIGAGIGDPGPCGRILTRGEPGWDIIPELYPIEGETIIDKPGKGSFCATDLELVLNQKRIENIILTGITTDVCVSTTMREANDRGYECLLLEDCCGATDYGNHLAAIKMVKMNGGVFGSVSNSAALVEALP

Substance | Km (NC(=O)NC(N)=O [1]) [µM] | kcat (NC(=O)NC(N)=O [1]) [s⁻¹] | kcat/Km (NC(=O)NC(N)=O [1]) [M⁻¹ s⁻¹] | Km (NC(=O)NC(N)=O [2]) [µM] | kcat (NC(=O)NC(N)=O [2]) [s⁻¹] | kcat/Km (NC(=O)NC(N)=O [2]) [M⁻¹ s⁻¹]
biuret hydrolase (BiuH) (Rhizobium johnstonii 3841) | 79 ± 7 | 11.9 ± 0.3 | 150000 | – | – | –
biuret hydrolase (BiuH) (Rhizobium johnstonii 3841; F41W) | – | – | – | 127 ± 8 | 0.26 ± 0.003 | 2050
biuret hydrolase (BiuH) (Rhizobium johnstonii 3841; K142R) | – | – | – | 139 ± 8 | 0.07 ± 0.001 | 504
biuret hydrolase (BiuH) (Rhizobium johnstonii 3841; Q215N) | – | – | – | 48 ± 2 | 0.19 ± 0.002 | 3960
